The values that follow come from PMC10394066, “Polymorphic amyloid nanostructures of hormone peptides involved in glucose homeostasis display reversible amyloid formation” (Nature Communications, 2023).

This data set concerns the molecule itself. The data set is described as follows: FTIR; 6 mM peptide in water, pH adjusted from 7.2 to 4.2; amide I band 1625–1630 cm^−1; bio-ATR cell.

B1: APR^ex-4 hexapeptide LFIEWL (aggregation-prone region of exendin-4) (peptide)
peptide: LFIEWL
notes: aggregation-prone hexapeptide segment of the non-mammalian exendin-4 (also of exendin-3); free termini; also called LFIEWL (exendin-4); source: synthetic peptide (flow solid-phase synthesis, Fmoc/tBu; RP-HPLC purified)
In the case of B1, the binding result is listed as “binds”.
